Laboratory results reported in the supplement of paper PMC10567573.

B1: OAS1 (parent)
chain: LQLGEGVEFDVLPAFDALGQLTGG

Variants of: B1
Assay: protein stability index of a GFP-peptide fusion (GPS, HEK-293T) (PSI 1-6); higher = more stable
Details: c terminus: a fixed tail appended
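Note: lentivirally expressed fusions sorted by FACS into six bins by GFP to DsRed ratio, PSI derived from sequencing read proportions per bin multiplied by bin number.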

Variant | protein stability index
LQLGEGWEFDVLPAFDALGQLTGG [V7W] | 2.81
LQLGEGNEFDVLPAFDALGQLTGG [V7N] | 2.46
LQLGEGCEFDVLPAFDALGQLTGG [V7C] | 1.34
LQLGEGHEFDVLPAFDALGQLTGG [V7H] | 2.9
LQLGEGMEFDVLPAFDALGQLTGG [V7M] | 1.52
LQLGEGKEFDVLPAFDALGQLTGG [V7K] | 2.27
LQLGEGQEFDVLPAFDALGQLTGG [V7Q] | 2.86
LQLGEGFEFDVLPAFDALGQLTGG [V7F] | 1.8
LQLGEGAEFDVLPAFDALGQLTGG [V7A] | 2.33
LQLGEGYEFDVLPAFDALGQLTGG [V7Y] | 1.55
LQLGEGLEFDVLPAFDALGQLTGG [V7L] | 3.26
LQLGEGTEFDVLPAFDALGQLTGG [V7T] | 2.41
LQLGEGPEFDVLPAFDALGQLTGG [V7P] | 1.67
LQLGEGIEFDVLPAFDALGQLTGG [V7I] | 2.84
LQLGEGSEFDVLPAFDALGQLTGG [V7S] | 2.11
LQLGEGDEFDVLPAFDALGQLTGG [V7D] | 2.04
LQLGEGEEFDVLPAFDALGQLTGG [V7E] | 2.5
LQLGEGREFDVLPAFDALGQLTGG [V7R] | 2.27
LQLGEGVEFDVWPAFDALGQLTGG [L12W] | 1.13
LQLGEGVEFDVYPAFDALGQLTGG [L12Y] | 1.72
LQLGEGVEFDVEPAFDALGQLTGG [L12E] | 3.98
LQLGEGVEFDVFPAFDALGQLTGG [L12F] | 1.54
LQLGEGVEFDVNPAFDALGQLTGG [L12N] | 2.99
LQLGEGVEFDVKPAFDALGQLTGG [L12K] | 2.94

Variant | protein stability index
LQLGEGVEFDVHPAFDALGQLTGG [L12H] | 3.08
LQLGEGVEFDVSPAFDALGQLTGG [L12S] | 3.82
LQLGEGVEFDVDPAFDALGQLTGG [L12D] | 4.05
LQLGEGVEFDVPPAFDALGQLTGG [L12P] | 2.48
LQLGEGVEFDVGPAFDALGQLTGG [L12G] | 2.69
LQLGEGVEFDVTPAFDALGQLTGG [L12T] | 2.4
LQLGEGVEFDVIPAFDALGQLTGG [L12I] | 1.64
LQLGEGVEFDVRPAFDALGQLTGG [L12R] | 2.69
LQLGEGVEFDVMPAFDALGQLTGG [L12M] | 3.1
LQLGEGVEFDVVPAFDALGQLTGG [L12V] | 2.24
LQLGEGVEFDVQPAFDALGQLTGG [L12Q] | 2.59
LQLGEGVNFDVLPAFDALGQLTGG [E8N] | 2.4
LQLGEGVIFDVLPAFDALGQLTGG [E8I] | 2.37
LQLGEGVHFDVLPAFDALGQLTGG [E8H] | 2.07
LQLGEGVTFDVLPAFDALGQLTGG [E8T] | 1.42
LQLGEGVWFDVLPAFDALGQLTGG [E8W] | 1.98
LQLGEGVLFDVLPAFDALGQLTGG [E8L] | 1.5
LQLGEGVKFDVLPAFDALGQLTGG [E8K] | 1.83
LQLGEGVSFDVLPAFDALGQLTGG [E8S] | 1.99
LQLGEGVPFDVLPAFDALGQLTGG [E8P] | 2.09
LQLGEGVDFDVLPAFDALGQLTGG [E8D] | 2.54
LQLGEGVQFDVLPAFDALGQLTGG [E8Q] | 1.67
LQLGEGVYFDVLPAFDALGQLTGG [E8Y] | 2.67
LQWGEGVEFDVLPAFDALGQLTGG [L3W] | 2.49

Variant | protein stability index
LQVGEGVEFDVLPAFDALGQLTGG [L3V] | 2.34
LQYGEGVEFDVLPAFDALGQLTGG [L3Y] | 3.37
LQIGEGVEFDVLPAFDALGQLTGG [L3I] | 2.26
LQGGEGVEFDVLPAFDALGQLTGG [L3G] | 2.93
LQDGEGVEFDVLPAFDALGQLTGG [L3D] | 2.98
LQNGEGVEFDVLPAFDALGQLTGG [L3N] | 1.72
LQSGEGVEFDVLPAFDALGQLTGG [L3S] | 3.02
LQTGEGVEFDVLPAFDALGQLTGG [L3T] | 3.61
LQHGEGVEFDVLPAFDALGQLTGG [L3H] | 4.17
LQRGEGVEFDVLPAFDALGQLTGG [L3R] | 3.24
LQKGEGVEFDVLPAFDALGQLTGG [L3K] | 3.97
LQEGEGVEFDVLPAFDALGQLTGG [L3E] | 4.56
LQPGEGVEFDVLPAFDALGQLTGG [L3P] | 4.01
LQFGEGVEFDVLPAFDALGQLTGG [L3F] | 2.08
LQMGEGVEFDVLPAFDALGQLTGG [L3M] | 2.34
LQQGEGVEFDVLPAFDALGQLTGG [L3Q] | 3.6
LQLGEGVEFQVLPAFDALGQLTGG [D10Q] | 1.8
LQLGEGVEFVVLPAFDALGQLTGG [D10V] | 2.77
LQLGEGVEFHVLPAFDALGQLTGG [D10H] | 1.5
LQLGEGVEFGVLPAFDALGQLTGG [D10G] | 2.03
LQLGEGVEFFVLPAFDALGQLTGG [D10F] | 1.64
LQLGEGVEFTVLPAFDALGQLTGG [D10T] | 1.36
LQLGEGVEFCVLPAFDALGQLTGG [D10C] | 2.3
LQLGEGVEFSVLPAFDALGQLTGG [D10S] | 2

Variant | protein stability index
LQLGEGVEFNVLPAFDALGQLTGG [D10N] | 3
LQLGEGVEFKVLPAFDALGQLTGG [D10K] | 1.99
LQLGEGVEFPVLPAFDALGQLTGG [D10P] | 2.53
LQLGMGVEFDVLPAFDALGQLTGG [E5M] | 1.15
LQLGAGVEFDVLPAFDALGQLTGG [E5A] | 1.99
LQLGKGVEFDVLPAFDALGQLTGG [E5K] | 2.09
LQLGWGVEFDVLPAFDALGQLTGG [E5W] | 2.32
LQLGDGVEFDVLPAFDALGQLTGG [E5D] | 2.24
LQLGNGVEFDVLPAFDALGQLTGG [E5N] | 2.09
LQLGGGVEFDVLPAFDALGQLTGG [E5G] | 2.63
LQLGTGVEFDVLPAFDALGQLTGG [E5T] | 2.05
LQLGYGVEFDVLPAFDALGQLTGG [E5Y] | 1.14
LQLGPGVEFDVLPAFDALGQLTGG [E5P] | 1.93
LQLGCGVEFDVLPAFDALGQLTGG [E5C] | 1.25
LQLGHGVEFDVLPAFDALGQLTGG [E5H] | 1.68
LQLGVGVEFDVLPAFDALGQLTGG [E5V] | 2.24
LQLGLGVEFDVLPAFDALGQLTGG [E5L] | 1.02
LQLGQGVEFDVLPAFDALGQLTGG [E5Q] | 1.64
LQLGEGVEFDVLDAFDALGQLTGG [P13D] | 1.4
LQLGEGVEFDVLNAFDALGQLTGG [P13N] | 2.69
LQLGEGVEFDVLYAFDALGQLTGG [P13Y] | 2.03
LQLGEGVEFDVLRAFDALGQLTGG [P13R] | 1.29
